# Measured values reported in article PMC3032881.
# Like-named read-outs stand apart in the source and are kept apart here.
# B1: NY-ESO-1 157-165 heteroclitic peptide … (peptide)
# peptide: SLLMWITQL
# B2: gp100 280-288 peptide YLEPGPVA (peptide)
# chain: YLEPGPVTA
# modifications: not checked
# Assays:
# [1] = molecular target: soluble recombinant HLA A*0201 (α chain tagged with a biotinylation sequence, with β2m); assay: SPR; real time pMHC stability assay, BIAcore 3000, CM5 chip; ~500 RU of biotinylated refolded pMHCI immobilised on streptavidin; flow 10 μl/min for 15,000 s; Langmuir dissociation analysis converted to half-life
# [2] = molecular target: HLA A*0201 on the surface of TAP deficient T2 cells (human (endogenous in T2 cells)); assay: flow cytometry on cells; T2-binding assay: TAP deficient T2 cells with peptide at 100, 50, 10 and 1 μM in AIM-V, 10 min 37 °C, room temperature overnight, 2 h 37 °C; surface HLA A*0201 stained with anti-human HLA A*0201:RPE; MFI fitted (log(agonist) vs. response) to logEC50
# [3] = molecular target: soluble recombinant HLA A*0201 (α chain tagged with a biotinylation sequence, with β2m); assay: SPR; real time pMHC stability assay, BIAcore 3000, CM5 chip; ~500 RU of biotinylated refolded pMHCI immobilised on streptavidin; flow 10 μl/min for 15,000 s; Langmuir dissociation analysis converted to half-life; remark: listed apart in the source
# [4] = molecular target: HLA A*0201 on the surface of TAP deficient T2 cells (human (endogenous in T2 cells)); assay: flow cytometry on cells; T2-binding assay: TAP deficient T2 cells with peptide at 100, 50, 10 and 1 μM in AIM-V, 10 min 37 °C, room temperature overnight, 2 h 37 °C; surface HLA A*0201 stained with anti-human HLA A*0201:RPE; MFI fitted (log(agonist) vs. response) to logEC50; remark: listed apart in the source
Binder,half-life [1] [h],koff [1] [s⁻¹],LogEC50 [2] [M],half-life [3] [h],LogEC50 [4] [M]
B1,10.1,1.9e-05,-4.37,–,–
B2,–,–,–,5.8,-3.59
